Measured values as given in PMC11585597.

Columns and labels:
[1] = target: StrepII-∆N-term DERA (Chloroflexi bacterium GWB2_54_36); assay: pull-down + SEC
[2] = target: HIS-∆N-term DERA (deoxyribose 5-phosphate aldolase of the SPU6 BMC locus, N-terminal extension deleted) (Chloroflexi bacterium GWB2_54_36); assay: SEC

Substance	stoichiometry N [1]	subunits of each protein in the complex [1]	stoichiometry N [2]
HIS-RPI (ribose 5-phosphate isomerase B family protein of the SPU6 BMC locus, full length) (enzyme)	1	> 2	
HIS-∆N-term DERA (deoxyribose 5-phosphate aldolase of the SPU6 BMC locus, N-terminal extension deleted) (domain or fragment)			2
